Assays:
[1] = target: lactate dehydrogenase (LDH); assay: phage ELISA; LDH coated
[2] = target: lactate dehydrogenase (LDH); assay: phage ELISA, 405 nm; LDH coated
[3] = target: antibody raised against ETAG; assay: phage ELISA, 405 nm; anti-E-tag antibody coated
DGI-2 polypeptide [4] = target: DGI-2 polypeptide (UniProt Q15004); assay: phage ELISA, 405 nm; DGI-2 signal over LDH signal
DGI-2 polypeptide [5] = target: DGI-2 polypeptide (UniProt Q15004); assay: phage ELISA, 405 nm; DGI-2 coated
DGI-2 polypeptide [6] = target: DGI-2 polypeptide (UniProt Q15004); assay: phage ELISA

DGI-2 polypeptide, sequence (Q15004 whole entry): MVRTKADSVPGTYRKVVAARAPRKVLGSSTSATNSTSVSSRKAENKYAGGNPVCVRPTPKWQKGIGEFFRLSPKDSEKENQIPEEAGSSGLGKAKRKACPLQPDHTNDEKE

Binder: FLLQDFIMDAGSFVKPIGVGGAPVPYPDPLEPR (peptide, not shown: large carriers) [DGI9-20M-4-A414]
- LDH (ratio over background) [1]: 1.1

B1: DGI-2-40F-3-D1 (peptide, not shown: large carriers)
peptide: MGQGFHYNRQPYMSHQCYAFTFSTPFLDGDRIPHGVSRGLAAAGAPVPYPDPLEPRP
- LDH (OD) [2]: 0.8 OD

B2: DGI-2-40F-3-B5 (peptide, not shown: large carriers)
peptide: RSRSSSGASGSMLRVQNHMVLGSWMVRQPMGSMTPFHGHGAAAGAPVPYPDPLEPRP
- LDH (OD) [2]: 0.9 OD

Binder: FSSVLGLLDRRGVPVVVGEDAAAGAPVPYPDPLEPRP (peptide, not shown: large carriers) [DGI-2-20F-3-C3]
- LDH (OD) [2]: 0.9 OD

B3: DGI-2-40F-3-C10 (peptide, not shown: large carriers)
peptide: WRARSSGYLFALTPNFGVPHPSSALRRMHGLMARDLRPVAAAGAPVPYPDPLEPRP
- ETAG (OD) [3]: 7.7 OD
- LDH (OD) [2]: 0.9 OD
- DGI-2/LDH (OD) (DGI-2 polypeptide [4]): 1.3
- DGI-2 (OD) (DGI-2 polypeptide [5]): 1.1 OD

B4: DGI-2-40F-3-D3 (peptide, not shown: large carriers)
peptide: VQFAMTLSSRLWQHARHPLTDDAPPTVSFGTRRETLAGKAAAAGAPVPYPDPLEPRP
- LDH (OD) [2]: 0.9 OD

B5: DGI-2-40F-3-C7 (peptide, not shown: large carriers)
peptide: HPWVTNMLVFQRPPPPGFWLSDTTPRQRNGLGQVERPSVDAAAGAPVPYPDPLEPRP
- LDH (OD) [2]: 0.8 OD

Binder: DYKGRTMTSPIMSALPVYDRLHGAIGSRGQNMDAAAGAPVPYPDPLEPRP (peptide, not shown: large carriers) [DGI-2-20C-3-B3]
- ETAG (OD) [3]: 7.7 OD
- LDH (OD) [2]: 0.9 OD
- DGI-2/LDH (OD) (DGI-2 polypeptide [4]): 0.9
- DGI-2 (OD) (DGI-2 polypeptide [5]): 0.8 OD

B6: DGI-2-40F-3-B4 (peptide, not shown: large carriers)
peptide: LWLPCGLLVRPAQFYFYFSPLRHFLSSSVGSLSFPLSLLVAAAGAPVPYPDPLEPRP
- LDH (OD) [2]: 0.8 OD

B7: DGI-2-40F-3-A8 (peptide, not shown: large carriers)
peptide: GQISLAGVAVCSSERMLLAFSSRVFLPGLKVPVTTSQRGSAAAGAPVPYPDPLEPRP
- LDH (OD) [2]: 0.8 OD

Binder: LVIQCSASVVACDLYWNYVGCLAAGAAAGAPVPYPDPLEPRP (peptide, not shown: large carriers) [DGI-2-20C-3-D12]
- LDH (OD) [2]: 1 OD

Binder: LGNASSLIPFLRSVQESGVRAAAGAPVPYPDPLEPRP (peptide, not shown: large carriers) [DGI-2-20F-3-C5]
- ETAG (OD) [3]: 17.7 OD
- LDH (OD) [2]: 0.9 OD
- DGI-2/LDH (OD) (DGI-2 polypeptide [4]): 1
- DGI-2 (OD) (DGI-2 polypeptide [5]): 1 OD

B8: DGI-2-40F-3-A7 (peptide, not shown: large carriers)
peptide: CAYRWGLFRGPGRVDYDLQVVGIMMWPGPIPDRSSRGSVAAAAGAPVPYPDPLEPRP
- LDH (OD) [2]: 0.8 OD

B9: DGI-2-40F-3-C52 (peptide, not shown: large carriers)
peptide: GLLFTSSPYQCFWVHCTLTMSPLSVLGDLSSTIGRMRASRAAAGAPVPYPDPLEPRP
- LDH (OD) [2]: 0.8 OD

B10: DGI-2-40F-3-B1 (peptide, not shown: large carriers)
peptide: HGTRLRGVDYVMTWAGWQGYSSRKHVQQAVAGSSPGSDELAAAGAPVPYPDPLEPRP
- LDH (OD) [2]: 0.7 OD

Binder: GRAGTSMTELVAWGFVQRVGAAAGAPVPYPDPLEPRP [DGI-2-20F-PP-H10]
- DGI-2 (OD) (DGI-2 polypeptide [6]): 1.4 OD
- DGI-2/LDH (DGI-2 polypeptide [6]): 1.9

Binder: LHRLGQSMGGTLDHLQGWGVAAAGAPVPYPDPLEPRP (peptide, not shown: large carriers) [DGI-2-20R-4-E5]
- LDH (OD) [2]: 1.1 OD

Binder: MAGFRGSGLSGYSEARLPRVGAPVPYPDPLEPR (peptide, not shown: large carriers) [DGI9-20M-4-E3]
- LDH (ratio over background) [1]: 1

B11: DGI-2-40F-3-A1 (SEQ ID NO: 187) (peptide, not shown: large carriers)
peptide: QYFARGSFQFGLSHVLSAAAAFHLYVFCKRLSRGFGIKDDAAAGAPVPYPDPLEPRP
- LDH (OD) [2]: 0.7 OD

Binder: LSRIWRGVIESAREVESRGIAAAGAPVPYPDPLEPRP (peptide, not shown: large carriers) [DGI-2-20F-3-B1]
- LDH (OD) [2]: 0.9 OD

B12: DGI-2-40F-3-B95 (peptide, not shown: large carriers)
peptide: DYKTCVSQHVHPLFGEYFYHKVTHMSILSPTFRVTSLYGKAAAGAPVPYPDPLEPRP
- LDH (OD) [2]: 0.8 OD

Binder: WDWSRFGAQLRGAILGRATGGAPVPYPDPLEPR (peptide, not shown: large carriers) [DGI9-20M-4-A627]
- LDH (ratio over background) [1]: 0.9

B13: DGI-2-40F-3-A12 (peptide, not shown: large carriers)
peptide: RRTQPAYRSGADDRTSGFYCYVTSALSAGAWMPFLPRRLAAAAGAPVPYPDPLEPRP
- LDH (OD) [2]: 0.8 OD

Binder: RCFQDGRMLALSPTYLIRRSVSPLVVGPLPTPAAAGAPVPYPDPLEPRP (peptide, not shown: large carriers) [DGI-2-40F-3-A24]
- LDH (OD) [2]: 0.9 OD

Binder: GEVDCVYALTHRFLSPQVQYHHRPVAAAGAPVPYPDPLEPRP (peptide, not shown: large carriers) [DGI-2-20C-3-A12]
- ETAG (OD) [3]: 8.1 OD
- LDH (OD) [2]: 0.9 OD
- DGI-2/LDH (OD) (DGI-2 polypeptide [4]): 1
- DGI-2 (OD) (DGI-2 polypeptide [5]): 0.9 OD

Binder: WFTHVVEKFAAAGAPVPYPDPLEPRP (peptide, not shown: large carriers) [DGI-2-40F-3-A4]
- ETAG (OD) [3]: 6.7 OD
- LDH (OD) [2]: 0.8 OD
- DGI-2/LDH (OD) (DGI-2 polypeptide [4]): 1.3
- DGI-2 (OD) (DGI-2 polypeptide [5]): 1.1 OD

B14: DGI-2-40F-3-D9 (peptide, not shown: large carriers)
peptide: RRTSADTDQLSRWEGAQAFSSLRSALSERLDSLRPGLPPSAAAGAPVPYPDPLEPRP
- LDH (OD) [2]: 0.8 OD

B15: DGI-2-40F-3-B72 (peptide, not shown: large carriers)
peptide: PKDGAAFKGSDFIQGGQTVMERAPALWWRDGGGQWEAPSTAAAGAPVPYPDPLEPRP
- LDH (OD) [2]: 0.7 OD

B16: DGI-2-40F-3-B6 (peptide, not shown: large carriers)
peptide: QSNVWVLVGVIMQGVWYQRQHYCVYVMLLSDQVSVLLAVAAAAGAPVPYPDPLEPRP
- LDH (OD) [2]: 0.8 OD

Binder: MAVLPAARDFGGVVQGGVSGAAAGAPVPYPDPLEPRP (peptide, not shown: large carriers) [DGI-2-20F-3-C2]
- LDH (OD) [2]: 1 OD

B17: DGI-2-40F-4-E1130 (peptide, not shown: large carriers)
peptide: VCRLCRLCRFSMRCGGLSLVLGSAAAFFCEVFVGFCVAAAGAPVPYPDPLEPRP
- ETAG (OD) [3]: 8.3 OD
- LDH (OD) [2]: 0.9 OD
- DGI-2/LDH (OD) (DGI-2 polypeptide [4]): 3.2
- DGI-2 (OD) (DGI-2 polypeptide [5]): 2.9 OD

Binder: SRLALSSQHGLSLVAGRRRGGAPVPYPDPLEPR (peptide, not shown: large carriers) [DGI9-20M-4-A12]
- LDH (ratio over background) [1]: 0.9

— patent US7056679
